The labels stand for the following.
B1: TPR 5TU (parent)
chain: GGAUCUUCUCGAUCUAACAAAAAAGACAAAUCUGCCACAAAGCUUGAGAGCAUCUUCGGAUGCAGAGGCGGCAGCCUUCGGUGGCGCGAUAGCGCCAACGUUCUCAACUAUGACACGCAAAACGCGUGCUCCGUUGAAUGGAGUUUAUCAUG

Fewer inactive variants are shown than the library holds.

Results on 84 variants are retold here after the RNAGym collection of RNA variant scans (doi:10.1073/pnas.2313332121).

Variants of B1 are the subject of this series. Nature of the series: polymerase ribozyme fitness, log enrichment relative to wild type (log ratio); higher = more active; in vitro selection for triplet polymerase activity. The method in brief: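 A single round of triplicate in vitro selection, including frozen incubation at −7 °C, was applied to PCR-built, transcribed mutant libraries of each subunit of a heterodimeric triplet polymerase ribozyme. Illumina sequencing of input and output libraries retained genotypes with ≥10 input reads and ≥1 read per output. Fitness is the base-2 logarithm of genotype enrichment divided by wild-type enrichment, from inverse-variance-weighted replicate averages.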
As for A37U A52G C76U C95A, the “polymerase ribozyme fitness (log ratio)” value was -2.41.
In the case of A37G U45G C57G C95U it was -3.33; in that of A37G A41C G71A U90A C96U, at most -4.2.
In the case of A37U A121G G152U it was -3.84; in that of A37U C75U G83A A98U, -2.88; in that of A37G C93U, -3.38.
As to A37U U134G, the “polymerase ribozyme fitness (log ratio)” value is -2.86.
As for A37C G92A U146G, the “polymerase ribozyme fitness (log ratio)” value is -4.01.
With A37C C95A A97C A121U, the “polymerase ribozyme fitness (log ratio)” value was -2.71.
Take A37C C57A: the “polymerase ribozyme fitness (log ratio)” value stood at 0.0979.
As for A37G A47C G100U G143A, the figure is at most -4.2.
On to A37U U56A C99U G143U, for which the “polymerase ribozyme fitness (log ratio)” value was -3.88.
As for A37U G80C G81C U102A A110U C118G A120U G133U, the figure is at most -4.2; as for A37G A47U G81C C95G U102G A120U U134C U135G A137C, at most -4.2.
Take A37C C95U G141C: the “polymerase ribozyme fitness (log ratio)” value is -1.7.
Consider A37G U56A G84A C85U G133C, for which the “polymerase ribozyme fitness (log ratio)” value is -4.13.
In the case of A37G U77A C87A C99U G140C A147U it was at most -4.2; in that of C38A A47G U55A U56C A60G, -2.08; in that of A37U A47C C85U C95U A113C U148A G152U, at most -4.2.
Take A37G G58C C85A: the “polymerase ribozyme fitness (log ratio)” value is -3.83.
As to A37G G50C, the “polymerase ribozyme fitness (log ratio)” value is -3.93.
For A37U A64U, the “polymerase ribozyme fitness (log ratio)” value was at most -4.2.
In the case of A37C G94U A98U it was -1.16.
As for A37C U53A U78A C85A, the “polymerase ribozyme fitness (log ratio)” value was at most -4.2.
In the case of A37C G62U G86U G100C A107G, the “polymerase ribozyme fitness (log ratio)” value was at most -4.2.
On to C38A A47C C96A, for which the “polymerase ribozyme fitness (log ratio)” value is -1.63.
Turning to A37G G117U, the “polymerase ribozyme fitness (log ratio)” value was -2.18.
Consider A37U G94A, for which the “polymerase ribozyme fitness (log ratio)” value is -1.
For A37G C95A U127G, the “polymerase ribozyme fitness (log ratio)” value is -4.15.
As for A37U C38G A97C, the figure is -1.69.
In the case of A37U C103A it was -3.85.
Consider A37C C54U A60C U61G C96U C99A G112A A115G, for which the “polymerase ribozyme fitness (log ratio)” value is at most -4.2.
As for A37U U56C C69U, the figure is -2.76; as for A37G A60G G83C C96U G141U, -2.58.
Regarding A37G U44A A52C G86U C95U U101G U144C, the “polymerase ribozyme fitness (log ratio)” value is at most -4.2.
Take A37G A73U G94A A97C G124A: the “polymerase ribozyme fitness (log ratio)” value was at most -4.2.
For the variant A37U A52C A73U G86A C96A C108G G133A G141A, the “polymerase ribozyme fitness (log ratio)” value was at most -4.2.
A37C C116G: the “polymerase ribozyme fitness (log ratio)” value is -0.143.
For the variant A37C C114U, the “polymerase ribozyme fitness (log ratio)” value was -3.07.
On to A37G A91C A138C G140U, for which the “polymerase ribozyme fitness (log ratio)” value was at most -4.2.
As for A37G A52C A97C, the figure is -3.67; as for A37G G58A G92C G140U, at most -4.2.
As to A37C C96G U101G A150C U151A, the “polymerase ribozyme fitness (log ratio)” value was at most -4.2.
As for A37U U101G U134G G141A, the “polymerase ribozyme fitness (log ratio)” value was -4.08.
As to A37U C75A C85U G112C G124C C132G A142G U145A, the “polymerase ribozyme fitness (log ratio)” value was at most -4.2.
For A37U A52G G83A G84A A115U, the “polymerase ribozyme fitness (log ratio)” value is at most -4.2.
On to A37C C96G A106G, for which the “polymerase ribozyme fitness (log ratio)” value was -0.258.
Consider A37C C75G G80A C149G, for which the “polymerase ribozyme fitness (log ratio)” value was at most -4.2.
In the case of A37G G94A it was -1.49; in that of A37G U61C G94U U145C, at most -4.2.
For A37U U45A G46C C85U C105U U144A, the “polymerase ribozyme fitness (log ratio)” value was at most -4.2.
Regarding A37U G42A C85A A138G, the “polymerase ribozyme fitness (log ratio)” value was at most -4.2.
In the case of A37G C93U G117A G128A, the “polymerase ribozyme fitness (log ratio)” value is -4.18.
In the case of A37G C38A G48U, the “polymerase ribozyme fitness (log ratio)” value is -2.25.
A37U C85A C93U G141C A147C: the “polymerase ribozyme fitness (log ratio)” value is at most -4.2.
A37G G84A U101G A120G: the “polymerase ribozyme fitness (log ratio)” value was -2.6.
As for A37G U53A U134G, the figure is -3.7; as for A37U G83C A91C A98G G124U, at most -4.2; as for C38A A64G C69G C87U U134A U151C, at most -4.2.
Turning to A37G U78A C93G C116U, the “polymerase ribozyme fitness (log ratio)” value is at most -4.2.
Turning to A37C G71U G86A A106U C132G U145G, the “polymerase ribozyme fitness (log ratio)” value was at most -4.2.
In the case of A37C G58C G65A, the “polymerase ribozyme fitness (log ratio)” value was -3.6.
Regarding A37C G83U C93G A97G G100U, the “polymerase ribozyme fitness (log ratio)” value is at most -4.2.
A37C G46A U61A G74A C93U A122U: the “polymerase ribozyme fitness (log ratio)” value is at most -4.2.
Turning to A37C G50U G59U G86U, the “polymerase ribozyme fitness (log ratio)” value is -2.65.
On to A37G C95U, for which the “polymerase ribozyme fitness (log ratio)” value was -2.43.
As to A37C C57U G86A C95G C99G C131U, the “polymerase ribozyme fitness (log ratio)” value was at most -4.2.
In the case of A37U A66G C149U G152C, the “polymerase ribozyme fitness (log ratio)” value was at most -4.2.
A37U C96U G126U: the “polymerase ribozyme fitness (log ratio)” value was -2.91.
Turning to A37C C43U A73C U77C C93U C116A U135G G136U, the “polymerase ribozyme fitness (log ratio)” value was at most -4.2.
As for A37U C85G C125U G141A, the “polymerase ribozyme fitness (log ratio)” value was at most -4.2.
On to A37C C95A A138C G141C, for which the “polymerase ribozyme fitness (log ratio)” value was at most -4.2.
On to A37U G84A U102C C123G, for which the “polymerase ribozyme fitness (log ratio)” value is -4.19.
For A37U U78G U90C U101G U104G, the “polymerase ribozyme fitness (log ratio)” value is at most -4.2.
Turning to A37U U55A G58C A142U, the “polymerase ribozyme fitness (log ratio)” value is -2.45.
With A37U C38U C76G C93U C96A C118U G143U, the “polymerase ribozyme fitness (log ratio)” value was at most -4.2.
For the variant A37G U45A C96U, the “polymerase ribozyme fitness (log ratio)” value is at most -4.2.
Consider A37G C85U, for which the “polymerase ribozyme fitness (log ratio)” value was -2.1.
On to A37C G84A U101G G126C U135C, for which the “polymerase ribozyme fitness (log ratio)” value was -3.6.
Take A37G U55G C85G: the “polymerase ribozyme fitness (log ratio)” value is -3.49.
For the variant A37C C43U G84A C114A U130G U151G, the “polymerase ribozyme fitness (log ratio)” value is at most -4.2.
With A37U G92C G133C, the “polymerase ribozyme fitness (log ratio)” value was -3.52.
In the case of A37G C95G C114U A119U A120G, the “polymerase ribozyme fitness (log ratio)” value is at most -4.2.
With A37U C54U C93U, the “polymerase ribozyme fitness (log ratio)” value was -2.44.
